Results as given in the nanobody polyreactivity screen of Harvey et al. (2022).

Experiment: yeast display, Sf9 membrane polyspecificity reagent, FACS + sequencing; frameworks hold sequencing errors
In short: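 Polyreactivity labels are assigned by the sorting gate from which each nanobody was recovered. The gates were low and high (top ~1%), set on anti-HA fluorescence for expression and streptavidin fluorescence for reagent binding. Before sorting, galactose-induced (36–48 hours) yeast display cells were stained for 1 hour at 4 °C with 10% biotinylated, detergent-solubilized Sf9 membrane reagent.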

Row | Sequence | polyreactivity (PSR sort gate)
1 | QVQLVESGGGLVQAGGSLRLSCAASGRIFGVYAMGWYRQAPGKERQLVAAITARGGSTYYADSVKGRFTISRDNAKNTVYLQMNSLKPEDTAVYYCATRLYKRTRTITYGYWGQGTQVTVSS | high polyreactivity
2 | QVQLVESGGGLVQAGGSLRLSCAASGRIFGVYGMGWYRQAPGKERELVAAITISGRTNYADSVKGRFTISRDNAKNTVYLQMNSLKPEDTAVYYCAAEKRKLFQGVARYRYEYWGQGTQVTVSS | low polyreactivity
3 | QVQLVESGGGLVQAGGSLRLSCAASGRIFGVYGMGWYRQAPGKERELVAAITISGRTNYADSVKGRFTISRDNAKNTVYLQMNSLKREDTAVYYCAAGGQARHDYWGQGTQVTVSS | low polyreactivity
4 | QVQLVESGGGLVQAGGSLRLSCAASGRIFGYNAMGWYRQAPGKEREFVAAITYRGGSTYYADSVKGRFTISRDNAKTTVYLEMNSLKPEDTAVYYCASRVTQYPKYWGDYWGQGTQVTVSS | high polyreactivity
5 | QVQLVESGGGLVQAGGSLRLSCAASGRIFGYNAMGWYRQAPGKERELVAAIRYSGGRTYYADSVKGRFTISRDNAKNTVYLQMNSLKREDTAVYYCAATAFDKLKVWYYYWGQGTQVTVSS | high polyreactivity
6 | QVQLVESGGGLVQAGGSLRLSCAASGRIFGYNAMGWYRQAPGKERELVATISGRGGSTYYADSVKGRFTISRDNAKNTVYLQMNSLKPEDTAVYYCNAKRKYGRFPKKYYYWGQGTQVTVSS | high polyreactivity
7 | QVQLVESGGGLVQAGGSLRLSCAASGRIFGYNAMGWYRQAPGNERELVAAITNGGSTNYADSVKGRFTISRDNAKNTVYLQINSLKPEDTAVYYCAVKWYPPGHDYWGQGTQVTVSS | low polyreactivity
8 | QVQLVESGGGLVQAGGSLRLSCAASGRIFGYNDMGWYRQAPGKERELVAAINRTGGSTYYADSVKGRFTISRDNGKNTVYLQMNSLKPEDTAVYYCNAVARTKWVQTHTDFITDYDYWGQGTQVTVSS | low polyreactivity
9 | QVQLVESGGGLVQAGGSLRLSCAASGRIFGYNSMGWYRQAPGKERELVAAIRRSGGRTFYADSVKGRFTLSRDNAKNTVYLQMNRLKPEDTAVYYCAVRGPGTSTYWYHEYEYWGQGTQVTVSS | high polyreactivity
10 | QVQLVESGGGLVQAGGSLRLSCAASGRIFGYTMGWYRPAPGKERELVAAISRSAGSTYYADSVKGRFTISRDNAKNTVYLQMNSLKPEDTAVYYCAATGRYYREYDYWGQGTQVTVSS | high polyreactivity
11 | QVQLVESGGGLVQAGGSLRLSCAASGRIFGYYAMGWSRQAPGKERELVASIRRGTRTNYADSVKGRFTISRDNAKNTVYLQMNSLKPEDTAVYYCAATRFQFTTTPWYDYWGQGTHVTVSS | high polyreactivity
12 | QVQLVESGGGLVQAGGSLRLSCAASGRIFGYYAMGWYRPAPGKEMELVAAIRYSSGRTYYADSVKGRFTISRDNAKNTVYLQMNSLKPEDTAVYYCAAKDQATYQLNYWGQGTQVTVSS | high polyreactivity
13 | QVQLVESGGGLVQAGGSLRLSCAASGRIFGYYAMGWYRQAPGKERELVAAIDGSGGTTYYADSVKGRITISRDNAKNSVYLQMNSLKPEATAVYYCAARGYNSKYGYWGQGTQVTVSS | high polyreactivity
14 | QVQLVESGGGLVQAGGSLRLSCAASGRIFGYYAMGWYRQAPGKERELVAAISNGGSTHYADSVKGRFTISRDNANNTVYLQMTSLKPEDTAVYYCAAKASRVDWGYGYWGQGTQVTVSS | high polyreactivity
15 | QVQLVESGGGLVQAGGSLRLSCAASGRIFGYYAMGWYRQAPGKERELVAAISYIGGRTYYADSVKGRFTISRDNAKNTGYLQMNSLKPEDTAVYYCDADRDGADVDYWGQGTQVTVSS | high polyreactivity
16 | QVQLVESGGGLVQAGGSLRLSCAASGRIFGYYAMGWYRQAPGKERELVAAITWSGGSTYYADSVKGRFTISRDNAKNTVYLQMNSLKPEDNAVYYCAAEKRYRKAFDYWGQGTQVTVSS | high polyreactivity
17 | QVQLVESGGGLVQAGGSLRLSCAASGRIFGYYAMGWYRQAPGKERELVAGIDWSGGNTYYADSVKGRFTISRDNAKNTVYLQMNSLKPEDTAVYYCNTVGGRDTAWYDYWGQGTQVTVSS | low polyreactivity
18 | QVQLVESGGGLVQAGGSLRLSCAASGRIFGYYAMGWYRQAPGKERELVARIRRRGGSTYYADSVKGRFTISRDNAKNTVYLQMNSLKPEDTAVYYCAAVYYPLVGKRYYYWGQGTQVTVSS | high polyreactivity
19 | QVQLVESGGGLVQAGGSLRLSCAASGRIFGYYAMGWYRQAPGKERELVASITNGASTNYADSVKGRFTISRDNAKNTVYLQMNSLKPEDTAVYYWNARRGSRRFGYWGQGTQVTVSS | high polyreactivity
20 | QVQLVESGGGLVQAGGSLRLSCAASGRIFGYYAMGWYRQAPGKQRELVAAISWSGGRTYYADSVKGRFTISRDNAKNTVYLQMNSLKPEDTAVYYCNKVYRVPITEEYDYWGQGTQVTVSS | high polyreactivity
21 | QVQLVESGGGLVQAGGSLRLSCAASGRIFGYYAMGWYRQAPGTERELVAAITYNGASTYYADSVKGRFTISRDNAKNTVYLQMNSLKPEDTAVYYCAVLTRYGGYGYWGQGTQVTVSS | high polyreactivity

Row | Sequence | polyreactivity (PSR sort gate)
22 | QVQLVESGGGLVQAGGSLRLSCAASGRIFGYYGMGWYRPAPGKERELVAAITYRGGSTYYADSVKGRFTISRDNAKNTVYLQMNSLKPEDTAVYYCAADGYSHYPYLYDYWGQGTQVTVSS | low polyreactivity
23 | QVQLVESGGGLVQAGGSLRLSCAASGRIFGYYPKGCYRPAPGKERELVAAISSGGNTNYADSVKGRFTISRDNAKKTVYLQMNSLKPEDTAVYYCSAYHFSFGWIRVDYWGQGTQVTVSS | high polyreactivity
24 | QVQLVESGGGLVQAGGSLRLSCAASGRIFGYYTMGWYRQAPGKERELVATIDWSGDSTYYADSVKARFTISRDNAKNTVYLQMNSLKPEDTAVYYCAARDHAFRYYRNPYKGKYDYWGQGTQVPVSS | low polyreactivity
25 | QVQLVESGGGLVQAGGSLRLSCAASGRIFHFNAIGWYRQAPGKERELFARIDTRGDSTYYADSVKGRFTISRDNAKNTVYLQMNSLKPEDTAVYYCAARGSRDGPYSGYGYWGQGTQVTVSS | low polyreactivity
26 | QVQLVESGGGLVQAGGSLRLSCAASGRIFHGNAMGWYRQAPGKERELVAAISRSGSRTYYADSVKGRFTISRDNAKNTVYLQMNSLKPEDTAVYYCAAVTFSYQDYYWGQVTQVTVSS | high polyreactivity
27 | QVQLVESGGGLVQAGGSLRLSCAASGRIFHGYAMGWYRQAPGKESELVAAISSGGRTNYADSVKGRFTISRDNAKYTVYLQMNSLKPEDTAVYYCAAPVLTSDYTLDSYYWGQGTQVTVSS | high polyreactivity
28 | QVQLVESGGGLVQAGGSLRLSCAASGRIFHRYVMGWYRQAPGKERELVAAISSGTGSTYYADSVKGRFTISRDTAKNTVYLLMNSLIPEDTAVYYCNAAPGYTSVTYDYWGQGTQVTVSS | high polyreactivity
29 | QVQLVESGGGLVQAGGSLRLSCAASGRIFHVYAMGWYRQAPGKERELVAAISSGDRTYYADSVNGRFIISRDNAKNTVYLQMNSLKPEDTAVYYCWLYPAAVSNYWGQGTQVTVSS | low polyreactivity
30 | QVQLVESGGGLVQAGGSLRLSCAASGRIFHYNAMGWYRQAPAKERELVAAINRSGGTTNYADSVKGRFTISRDTAKNTVYLEMNSLIPEDTAVYYCNATLPDYWPYYYYLGGDDYWGQGTQVTVSS | low polyreactivity
31 | QVQLVESGGGLVQAGGSLRLSCAASGRIFHYNAMGWYRQAPGKERELVAAITRRGTSTYYADSVKGRFTISRDNAKNTVYLQMNSLKPEDTAVYYCATDYGFKDSVVDFDYWGQGTQVTVSS | low polyreactivity
32 | QVQLVESGGGLVQAGGSLRLSCAASGRIFHYNAMGWYRQAPGKERELVAVITTIGGDTYYADSVKGRFTISRDNAKNTVYLQMNSLKPEDTAVYYCAARSRSWRQRYGDFDYWGQGTQVTVSS | low polyreactivity
33 | QVQLVESGGGLVQAGGSLRLSCAASGRIFHYNAMGWYRQARGKERQLVAAITGGGGSTYYADSVKGRFTISRDNAKNTVYLEKNSLKPEDTAVYYCAKRYRSSSIRVYYWGLGTQVTVSS | high polyreactivity
34 | QVQLVESGGGLVQAGGSLRLSCAASGRIFHYYMGWYRQAPGKERELVAVISSGDGTYYADSVKGRFTISRDNAKYTVYLQMNSLKPEDTAVYYCAADAPREYVDHYKYDDDYWGQGTQVTVSS | low polyreactivity
35 | QVQLVESGGGLVQAGGSLRLSCAASGRIFIAYAMGWYRQAPGKERELVAAITDDGGTNYADSVKGRFTISRDNAKNTVYLQMNSLKPEDTAVYYCAATYLIGYYYVWEYDYWGQGTHVTVSS | low polyreactivity
36 | QVQLVESGGGLVQAGGSLRLSCAASGRIFIDYAMAWYRQAPGKESELVATNTSSGGSTYYADSVKGRFTISRDNAKNTVYLLMNSLNPEDTAVYFCNKEGSYDYDYWGQGTQVTVSS | low polyreactivity
37 | QVQLVESGGGLVQAGGSLRLSCAASGRIFIDYAMGWSRQAHGKERELVAAIDSGGNSNYADSVKGRFTISRDNAKNSVYLQKNSLKPEDTAVYYCNASGVTTDIAGVYWGQGTQVSVSS | low polyreactivity
38 | QVQLVESGGGLVQAGGSLRLSCAASGRIFIDYAMGWYRPAPGKERELVATITSSGGSTYYADSVKGRFTISRDNAKNTVYLQMNRLKPEDTAVYYCNKEGSYDYDYWGQGTQVTVSS | low polyreactivity
39 | QVQLVESGGGLVQAGGSLRLSCAASGRIFIDYAMGWYRQAPGKERELVATISESGGSTYYADSVKARFTISRDNAKNTVYLQMNSLKPEDTAVYYCAAVGDNLATAEYDFWGQGTKVTVSS | low polyreactivity
40 | QVQLVESGGGLVQAGGSLRLSCAASGRIFIENAMGWYRQAPGKERELVAAISGSGGRTYYADSVKGRFTISRDNAKNTVYLQMNSLKPEDTAVYYCAAVLRTQPRRYDYWGQGTQVTVSS | high polyreactivity
41 | QVQLVESGGGLVQAGGSLRLSCAASGRIFIFTYALGWYRQAPGKERELVAAITSSGGSTYYADSVKGRFTISRDNAKNTVYLQMNSLKPEDTAVYYCIAYSYYIVHFIRYEYWGQGTQVTVSS | high polyreactivity
